Target: T1, Omicron BA.1 RBD (SARS-CoV-2, UniProt P0DTC2 333-528)
T1 construct: domain: RBD
Experiment: ELISA

Row | Binder | binding result
1 | Omi16 (antibody, V domains shown) VH: EVQLVESGGGVVQPGGSLRLSCAASGIIVSANYMTWVRQAPGKGLEWVSVIYPGGSTFYADSVKGRFTISRDNSKNTLYLQMNSLRVEDSAVYYCARDLELAGFNDFWGQGTLVTVSS VL: DVVMTQSPGTLALSPGERATLSCRTSQSVSSNYLAWYQQKPGQAPRLLIYGASSRATGIPDRFSGSGSGTDFTLTISRLEPEDFAVYYCQQFGSSPRYTFGQGTKVEIK | binds
2 | Omi17 (antibody, V domains shown) VH: QVQLVESGGGVVQPGGSLRLSCAASGVTVSSNYMSWVRQAPGKGLEWVSVLYAGGSTFYADSVKGRFTISRDNSKNTLYLQMNSLRAEDTAAYYCARDLAVAGFLDSWGQGTLVTVSS VL: DIVMTQSPGTLSLSPGERATLSCRASQGVSSIYLAWYQQKPGQAPRLVLYGASSRATGIPDRFSGSGSGTDFTLTISRLEPEDFAVYYCQQYGSSPRYTFGQGTKVEIK | binds
3 | Omi23 (antibody, V domains shown) VH: QVQLQESGPGLVKSSQTLSLTCTVSGDSISRGGYYWSWIRQHPGKGLEWIGSIYYSGSTYYNPSLKSRFTISVDTSKNQFSLKLSSVTAADTAVYHCAREIGFLDYWGQGTLVTVSS VL: AIQMTQSPSSLSASVGDRVTITCRASQAISNSLAWYQQKPGKAPKLLLYAASTLESGVPSRFSGSGSGTDFTLTISSLQPEDFATYFCQQYYSTPPRTFGQGTKVDIK | binds
4 | Omi24 (antibody, V domains shown) VH: QVQLVESGAEVKKPGSSVKVSCKASGGTFSSHGVIWVRQAPGQGLEWMGGIIPIFPTANYAQKFQGRVTITADKPSNTAYMELSSLRSEDTAVYYCARARGEHDSVWGSFHYYFDYWGQGTLVTVSS VL: not shown | binds
5 | Omi25 (antibody, V domains shown) VH: QVQLVESGGGLVQPGRSLRLSCAASGFTFDDYAMHWVRQVPGKGLEWVSGISWNSGSIVYADFVKGRFTIARDNAKNSLFLQMNSLRAEDTALYYCAKSTALRHQYYYGMDVWGQGTTVTVSS VL: AIQMTQSPSSLSASVGDRVTITCRTSQTISSYLNWYQQKPGKAPKLLIYDASSLQSGVPSRFSGSGYGTDFTLTISSLQPEDFATYFCQQSYNTPYAFGQGTKVEIK | binds
6 | Omi26 (antibody, V domains shown) VH: QVQLVQSGTEVKKPGASVKVSCKASDYTFTRFGIIWVRQAPGQGLEWMGQINPYNGNTDYAQKFQGRVTLTTDTSTNTAYMELRSLRSDDTAVYYCARSAGSPTGLDYWGQGTLVTVSS VL: QSVVTQPPSVSEAPRQRVTISCSGSNSNIGNNAVNWYQQLPGKAPKLLVYYDDLLPSGVSDRFSGSKSGTSASLAISGLQSEDKADYYCAAWDDSLNALVFGGGTKLTVL | binds
7 | Omi27 (antibody, V domains shown) VH: EVQLLESGGGLVQPGGSLRLSCVASGLTVSSNYMSWVRQAPGKGLEWVSIIYPGGTTYYADSVKGRFTTSRDKSKNTLYLQMNSLRAEDTAVYYCARDLAVAGGMDVWGQGTTVTVSS VL: EIVMTQSPSSLSASVGDRVTITCRASQGIGNDLGWYQQKPGKAPKVLIYAASNLQSGVPSRFSGSGSGTDFTLTISSLQPEDFATYYCLQDSNYPYTFGQGTKVEIK | binds
8 | Omi28 (antibody, V domains shown) VH: EVQLVESGGGLVQPGGSLRLSCAASGVIVSSNYMSWVRQAPGKGLQWVSVIYSGGSTFYADSVKGRFTISRDNSKNTLYLQMNSLRAEDTAVYYCARDLLEAGGTDYWGQGTLVTVSS VL: DVVMTQSPGTLSLSPGERATLSCRASQFIGSSYLAWYQQKPGQAPRLLIYGASNRATGVPDRFSGSGSGTDFTLTISRLEPEDFAVYYCQQYGSAPGTFGQGTKVEIK | binds
9 | Omi29 (antibody, V domains shown) VH: QVQLVESGGGLVQPGGSLRLSCAASGLIVSRNYMSWVRQAPGKGLEWVSLIYAGGSTFYSDSVKGRFTISRHSSENTLFLQMNSLRAEDTAVYYCARDLVHYGMDVWGQGTTVTVSS VL: NFMLTQPASVSGSPGQSITISCTGTSSDVGGYNYVSWYQQHPGKAPKLMIYDVSNRPSGVSNRFSGSNSGNTASLTISGLQAEDEADYYCSSYTSGSTWVFGGGTKLTVL | binds
10 | Omi30 (antibody, V domains shown) VH: EVQLVESGAEVKKPGSSVKVSCKASGGTFSRYAISWVRQAPGQGLEWMGGIIPIFDATNYAQKFHDRVTITADKSASTAYMELSSLRSDDTAVYYCARERTYCSGGTCYGGYFYYGMDVWGQGTTVTVSS VL: not shown | binds
11 | Omi33 (antibody, V domains shown) VH: EVQLLESGGGVVQPGRSLRLSCAASGFKFSDYGMHWVRQAPGKGLEWVAVYWYDGGTKFYADSVKGRFTISRDNSKNTLYLQMSSLRVEDTAVYYCARDTAPPDYWGQGTLVTVSS VL: EIVLTQSPGTLSLSPGERATLSCRASQSISSNFLAWYQQKPGQAPRLLIYGASSRATGIPDRFSGSGSGTDFTLTISRLEPEDFAVYYCQQYGTSPRLTFGGGTKVDIK | binds
12 | Omi34 (antibody, V domains shown) VH: QVQLVQSGAEVKKPGSSVKVSCKASGGTFSSYGIRWVRQAPGQGLEWMGGIIPVFGATNYAQKFQDRVTITADKSTATAYMELSSLKSDDTAVYFCARDALSASGWTGPFDSWGQGTLVTVSS VL: QSVLTQPPSVSGAPGQRVTISCTGSSSNIGADYDVHWYQQLPGAAPKLLIYGNNNRPSGVPDRFSGSKSGTSASLAITGLQAEDEADYYCQSYDSSQNAFYVFGTGTKVTVL | binds
13 | Omi35 (antibody, V domains shown) VH: QVQLVESGGGLVQPGRSLRLSCAASGFTFDDYAMHWVRQAPGKGLEWVSGSTWNSGTIDYADSVKGRFTISRDNAKNSLYLQMNSLRAEDTALYYCAKDRFRKGCSSTGCYKENYGMDVWGQGTTVTVSS VL: QSVVTQPPSVSVAPGQTARITCGGTNIGSKSVHWYQQKPGQAPVLVVYDDSDRPSGIPERFSGSNSGNTATLTITWVEAGDEADYYCQVWDSSSDNVLFGGGTKLTVL | binds
14 | Omi38 (antibody, V domains shown) VH: QVQLVESGAEVKKPGSSVKVSCKASGGNFNMYTISWVRQAPGRGLEWMGRFIPIANKANYAQNFPGRVTITADKSTSTVYMELRSLTSDDTAVYYCARSGSYDAFDVWGQGTMVTVSS VL: AIRMTQSPSTLSASVGDRVTITCRASQTINSWLAWYQQKPGKAPKLLIYDASNLESGVPSRFSGSGSGTEFTLTISSLQPDDFATYYCQQYESYSPITFGQGTRLEIK | binds
15 | Omi39 (antibody, V domains shown) VH: QVQLVESGGVVVQPGGSLRLSCAASGFSFDDYSMHWVRQAPGKGLEWVSVIYWDGVSKYYADSVKGRFTISRDNSKNSLYLQMNSLRTEDTAVYYCAKDSEDCSSTSCYMDVWGKGTTVTVSS VL: not shown | binds
16 | Omi02 (antibody, V domains shown) VH: EVQLVESGAEVKKPGSSVKVSCKASGGTFSSYAINWVRQAPGQGLEWMGGIIPIFRTPHYAQKFQGRVTITADESTGTAYMELSSLRSEDTAVYYCASPSCGGDCPQYLKSSKLDWYFDLWGRGTLVTVSS VL: VIWMTQSPGTLSLSPGERATLSCRASQSVSSTYLAWYQQKPGQAPRLLIYGASSRATGIPDRFSGSGSGTDFTLTISRLEPEDFAVYYCQHYGSSPLTFGQGTRLEIK | binds

From patent publication US20250154231A1 (RQBIO COVID, published 2025)
